The text below walks through data of PMC6396125 (ACS Omega, 2019).

One assay addresses T1, L. lactis OppA (Lactococcus lactis subsp. lactis, UniProt Q07741).
T1 sequence (Q07741 35-600 limits assumed): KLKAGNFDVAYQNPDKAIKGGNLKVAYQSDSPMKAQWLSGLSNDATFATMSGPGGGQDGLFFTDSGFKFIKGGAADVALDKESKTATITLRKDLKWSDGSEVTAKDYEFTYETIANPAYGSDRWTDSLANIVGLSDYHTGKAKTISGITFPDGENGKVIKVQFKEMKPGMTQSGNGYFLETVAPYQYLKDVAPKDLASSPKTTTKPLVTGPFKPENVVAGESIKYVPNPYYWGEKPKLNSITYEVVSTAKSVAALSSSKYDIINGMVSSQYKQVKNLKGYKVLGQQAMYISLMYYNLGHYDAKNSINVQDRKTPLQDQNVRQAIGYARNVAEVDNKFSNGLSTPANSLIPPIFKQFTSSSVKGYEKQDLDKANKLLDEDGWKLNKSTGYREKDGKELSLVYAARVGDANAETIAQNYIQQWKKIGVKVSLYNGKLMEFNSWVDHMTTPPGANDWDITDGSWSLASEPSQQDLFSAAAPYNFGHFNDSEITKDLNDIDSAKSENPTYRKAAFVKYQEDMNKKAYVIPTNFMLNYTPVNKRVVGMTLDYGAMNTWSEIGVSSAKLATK
The experiment in a line: Fluorescence anisotropy competition binding assay. For orientation: In fluorescence polarisation assays a small probe gives low polarisation when free and higher when bound to something large.

In assay [1] the target is Lactococcus lactis oligopeptide-binding protein A (OppA) (Lactococcus lactis subspecies cremoris MG1363). The assay can be described thus: fluorescence polarisation.
In assay [2] the target is bradykinin labeled with sulforhodamine 101 on the C-terminus. The assay can be described thus: fluorescence polarisation.
Assay [3] concerns the target Lactococcus lactis oligopeptide-binding protein A (OppA) (Lactococcus lactis subspecies cremoris MG1363). The assay can be described thus: fluorescence polarisation. The source holds these as a separate data set.
For assay [4] the target is unchanged. The assay can be described thus: fluorescence polarisation. This is another data set of the same source.
For assay [5] the target is unchanged. The assay can be described thus: fluorescence polarisation. The source holds these as a separate data set.

Values joined by “and” are separate entries in the source; they are usually repeats but may differ in a detail not shown here. Equal entries are not always repeated. Where two headings read alike, the source gives them in different places. Ends that are not written are not given here. A value given as a limit tells only on which side of the number the result lay.

As a reminder, the Kd is the free concentration of one partner at which half of the binding sites on the other are occupied at equilibrium, for simple one-to-one binding. Higher therefore signals a looser complex. The molecule YGGFLRRIR [dynorphin-A (1–9)] had a Kd at L. lactis OppA of 13.3 ± 0.7 µM.

For orientation: IC50 means the concentration needed to halve the response being measured. With dynorphin-A (1–9) (peptide), in assay [1], the IC50 worked out at 34.2 µM and the Kd is 13.3 µM. In the case of leu-enkephalin (peptide), the IC50 in assay [1] came out at 2000 µM. Consider `CC[C@H](C)[C@H](NC(=O)[C@H](CCCNC(=N)N)NC(=O)[C@H](CCCNC(=N)N)NC(=O)[C@H](CC(C)C)NC(=O)[C@H](Cc1ccccc1)NC(=O)CNC(=O)CNC(=O)[C@@H](N)Cc1ccc(O)cc1)C(=O)N[C@@H](CCCNC(=N)N)C(=O)N1CCC[C@H]1C(=O)N[C@@H](CCCCN)C(=O)N[C@@H](CC(C)C)C(=O)N[C@@H](CCCCN)C(=O)N[C@@H](Cc1c[nH]c2ccccc12)C(=O)N[C@@H](CC(=O)O)C(=O)N[C@@H](CC(N)=O)C(=O)N[C@@H](CCC(N)=O)C(=O)O` [dynorphin-A (1–17)], for which the Kd on L. lactis OppA came to 3.3 ± 0.6 µM.

On L. lactis OppA, SLSQSKVLPVPQ [casein-derived peptide] displayed a Kd of 0.2 ± 0.01 µM.

In the case of “Lactococcus lactis oligopeptide-binding protein A (OppA) (natural protein)”, the Kd in assay [2] was 22.9 µM and 15.4 µM. Consider neuropeptide S, for which the equilibrium dissociation constant (Kd) in assay [1] was determined as 1800 µM.

As for dynorphin-A (1–17) (peptide), in assay [1], the IC50 was 11 µM and the Kd was found to be 3.3 µM. Take bradykinin (peptide): the Kd is 0.4 µM in assay [3]; 0.13 µM in assay [1]; 0.2 µM and 0.36 µM and 0.7 µM in assay [4]; < 0.1 µM and 0.31 µM in assay [5]. Also, the IC50 in assay [1] is 5.2 µM; in assay [5], 5.1 µM and 5.3 µM and 5.6 µM.

As for SFRNGVGSGVKKTSFRRAKQ [neuropeptide S], the “IC50 from competition binding assay” value on L. lactis OppA (pH 6, 30 °C, vs prebound bradykinin-SR101 (1 μM) + OppA (15 μM) mixture, at least 1 h, mean ± SD, n = 3) is given as “no fit”.
